The text below walks through data of PMC11428563, “Systematic design and evaluation of aptamers for VEGF and PlGF biomarkers of Preeclampsia”.

The term Kd denotes the concentration at which binding is half-saturated. Low readings indicate higher affinity, high ones lower affinity.

Common to all, as to conditions: protein: commercial; tags: His; chain copies: 2
For data set [1], the target named is T1, PlGF (Human PlGF / PGF (19-149) Protein, His Tag, Acrobiosystems PGF-H52H5) (human, UniProt P49763-2 19-149).
T1 sequence: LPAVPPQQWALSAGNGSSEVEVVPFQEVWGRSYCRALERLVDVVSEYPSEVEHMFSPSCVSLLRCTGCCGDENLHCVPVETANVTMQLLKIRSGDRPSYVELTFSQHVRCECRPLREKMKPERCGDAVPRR
The experiment in a line: BLI; kon 3.169e3 1/Ms; koff 2.150e-1 1/s; BLI (Octet R4, anti-penta-His HIS1K sensors): protein loaded in phosphate buffer pH 7.4 (PlGF 2.5 ug/mL, VEGF 10 ug/mL); aptamers 0-20 uM in 1X Sartorius Kinetics Buffer; 1:1 global fit, triplicate; temperature not stated. Background: BLI is a label-free optical method that tracks binding on a fibre tip over time.

In data set [2] the target is T1, PlGF (Human PlGF / PGF (19-149) …). Nature of the data set: BLI; kon 2.746e3 1/Ms; koff 5.548e-7 1/s; BLI (Octet R4, anti-penta-His HIS1K sensors): protein loaded in phosphate buffer pH 7.4 (PlGF 2.5 ug/mL, VEGF 10 ug/mL); aptamers 0-20 uM in 1X Sartorius Kinetics Buffer; 1:1 global fit, triplicate; temperature not stated.
Data set [3] has the same target. Nature of the data set: BLI; kon 1.772e4 1/Ms; koff 2.049e-1 1/s; BLI (Octet R4, anti-penta-His HIS1K sensors): protein loaded in phosphate buffer pH 7.4 (PlGF 2.5 ug/mL, VEGF 10 ug/mL); aptamers 0-20 uM in 1X Sartorius Kinetics Buffer; 1:1 global fit, triplicate; temperature not stated.

Consider CGAAGAGACGCAGAGAAGC (ssRNA) [PlGF-Apt4], for which binding in data set [1] was put at a Kd of 49.7 µM.

Molecule AGAGAACGCAAGAGA (ssRNA) [PlGF-Apt3] yielded a Kd in data set [2] of 0.000298 µM.

The molecule ACAGGCACA (ssRNA) [PlGF-Apt2] showed a Kd in data set [3] of 17.7 µM.
